Experiment: label from the status in PepcDB records

Row | Sequence | protein production
1 | MNLETIPSGELTVSNQRSISRLVAQAGQMLLAHGAESTLVCDIMRRIGLACGVHEVAVALSANALVVTTVMDGHCITTTRSCADRGINMRVITQIQRICIMMERGLLDAAMAQKKLNTISPERYNRWLVVLMIGLSCAAFSHLAGGDWGVFIMTFLASAGGMIVRQEIGHRHFNPLLNFAATAFVTTLISAQAEIYQIGNLPTVAMASSVLMLVPGFPLINSVADMLKGHINMGIARFVMASLLTLATCLGIVAAMSVTGIWGWAI | failed
2 | MNMIRRLTALTLSLMLAGGPALAQTVVIVRHGEKVSPNGDPDLSDAGKARAQALAAALAGARVSTVLATPLKRTQQTAQPTADAAGLVIRTIALDGGVPAHAQRVAEVARQAPKDATVLIVGHSNTVGEIARALGDAAPSPVTDCDYDQMTIISLDAPTARTLHARYGAPTLPCPTN | failed
3 | LDRAYLRVENQRYRDKLEAANRELQASLNLLQEDQNAGRQVQMNMLPVTPWSIEGLEFSHRIIPSLYLSGDFVDYFRVDERRVAFYLADVSGHGASSAFVTVLLKFMTTRLLYESRRNGTLPEFKPSEVLAHINRGLINTKLGKHVTMLGGVIDLEKNSLTYSIGGHLPLPVLFVEGQAGYLEGRGLPVGLFDDATYDDRVMELPPSFSLSLFSDGILDVLPGATLKEKEASLPEQVAAAGGTLDGLRQVFGLANLAEMPDDIALLVLSRNLA | failed
4 | MKFFGFYRPIALIAGITVSASILTSVATAAESPTSFQAITPAFSSSSAPEADAEANTSEATADLLYVAENQLLIKLSNAVVEDVNGEILMKDNKGTLLENLTAELQAQPGFSIEKVDSHTALLTMNPDEVPDLQDWRCGVGALSGGVAGVVATGLALAALGVATGGTGFAVLAAGGLAGYGTGAVANC | failed
5 | MSEVTKNSLEKILPQLKCHFTWNLFKEDSVSRDLEDRVCNQIEFLNTEFKATMYNLLAYIKHLDGNNEAALECLRQAEELIQQEHADQAEIRSLVTWGNYAWVYYHLGRLSDAQIYVDKVKQTCKKFSNPYSIEYSELDCEEGWTQLKCGRNERAKVCFEKALEEKPNNPEFSSGLAIAMYHLDNHPEKQFSTDVLKQAIELSPDNQYVKVLLGLKLQKMNKEAEGEQFVEEALEKSPCQTDVLRSAAKFYRRKGDLDKAIELFQRVLESTPNNGYLYHQIGCCYKAKVRQMQNTGESEASGNKEMIEALKQYAMDYSNKALEKGLNPLNAYSDLAEFLETECYQTPFNKEVPDAEKQQSHQRYCNLQKYNGKSEDTAVQHGLEGLSISKKSTDKEEIKDQPQNVSENLLPQNAPNYWYLQGLIHKQNGDLLQAAKCYEKELGRLLRDAPSGIGSIFLSASELEDGSEEMGQGAVSSSPRELLSNSEQLN | failed
6 | LTFETLAREWFAYNSPRWAESTTYKAKLYMENDLIPGIGARPVKALTRPDLVDLVRKVEARGTLNAAGKIRQWLHQIFRYGLAKGVVESNPATDLDVVAAP | failed
7 | MTRSQTRPRRQALAEILGLMGLLVAGGLLAGQGGQTLARSVGGLGGASAPMPSRPWHGSNHTPLPSRGDGMAALDHNLITAASIGDLDLVNRLLKAGASAQATDERGRTALLAAVYNRRGDVMLVLIQAGADVNRKDDEGNSPFLLAAATNQIDVVRLALSHGADLNSTDRYDGTALIAASQHGNVEIVKLLISAGVPVDRVNQLGWTALLEAIILGDGSSRYEDIVQALLDAGADANLADREGVTPSRHARERGYKTMVRMLMRARGH | failed
8 | MEKVHLYWNLRYNCWFLVSVEHLWYSQGKVPGVHGFVILPVFLTLLEQPFSTTKKDITQLRSPSSESLSSSNAVNYRAIRGSHSYFGIYGI | failed
9 | MPGPKKPVTPEDIIRLTFVSNPSVSPEGDKVAYLATKADEKENTYRSGIWLAEEDSYRPLTGGPYDRCPAWSPDGEIIAFSRTVNSNQRKRHYIAIVSPKGGEPQVLHESVSPATSIKWSSQGSMIGYLSRKPTGREWKPYSERDVLEIDRIPVWFDSEGWVFDRYWGLTVISYPGGEVLLEKGGVNYNIVDFDFAPDDNTIVYAVSTDMKKPFIHKLVLWDLASGREKTLIEGLTIAAVAFDPRGRYIAVKANDRKRGLFSHYKIFVYDLNSEEFVCLTCDLDLNTLNTVNSDARGPSCLRGMYWDDNGHLYYGVHNAGRMVVMKSRPLGEAEAVLDPSSATVDDFSISRGGDTIAYVKMGPTSPPDIYIYRDDNEYRLTDHNAWFAESRSLAEPVRLQVQSPLGGSIDAWILLPPDAGECSGCLPWILYIHGGPKTSYGYAFIHEFQMLASQGFAVIYSNPRGSDGYSEEFADLRGRYGVDDYSELMKVVDEALSDFPQLDPQRGGVTGGSYGGYMTNVIVTKTRRFKAAVTQRSCSNWISFYGESDIGWYFAPELISAQEPWRDLEKYVDFSPLFSVENIETPLLIIHSTEDFRCPLSGAIQLFTALKLKGVETRLLVFPGENHNLSRSGTPKRRVARLRAIASWFKEHLGSQQRG | failed
10 | MILLSFNILVLYQNVQISLSSGICFRLYSEVLSYILIYVAVWLTLYGIDLLNTVYGASDSRSVSKSAVSKRTLAVLPCSSCRINKRCIENGHLQSATNKTSFVC | failed
11 | RSRTKLLLLTVIPLIVITALVMAVNYQSGLSTLQKELENYRTDLIDAKKKELQAYLMMGVTAVKPLYESDKAGENQAQAKQILKAMRFDSDGYFFAYDSQGVNTLHAIKPELEGKNLYGMKD | failed
12 | MFKKLLHSLFAGLTFMAAVAAVPAHAQEADAQTTVKTAVDDVLATIKGDSDLRSGNMQKVFQLVDQKIVPRADFKRTTQIAMGRFWSQATPEQQQQIQDGFKTLLVRTYAGALANVRNQTVSYKPFRAAADDTDVVVRSTVNNNGEPVALDYRMEKSANGWKVYDINISGLWLSETYKNQFAEVISKRGGVSGLVQFLDERNAQLAKGPAKLEHHHHHH | not failed
13 | MKNKKYLQFGGIAAVILIVLFLVSLFSSDTRNFQEVDTSVAMAQLDAGNVAEAQIDDREQRVRLTLREPITVDEREGVEEILAQYPARTAPAIFEKVEASNTDSYTTNVTQESFLMSMLSFILPMVIIFGLLMFFLTRMQGGGMFGIGGSKAKQLTKDMPTNTFADVAGAEEAVDELHEIKDFLEDPTRYEALGAKIPRGVLLYGPPGTGKTLLARAVAGEAGVPFYSISGSDFVEMFVGVGASRVRDLFKQAKENSPCIIFVDEIDAVGRARGSGMGGGHDEREQTLNQLLVEMDGFGDRQGVILMAATNRPDVLDPALLRPGRFDRQIPVTNPDLRGREQILEVHAKGKPFAPDADIKALAKRTAGMSGADLANVLNEAALLTARVGGNVITADALEEATDRVVGGPRRSGKVISEKEKKVTAYHEGGHTLSAWALEDIERVYKVTILARGRTGGHAMTAQEDDKGMYNRNELFARLVFAMGGRSAEELVFGEPTTGASADIEMATKIARSMVTEYGMSPAVGMVKYGQEQGDPFSGRGGGGNLDHSQEVAATIDTEVQFLLDKAHEVSYSILAEYRDHLDRLAEKLLEKETLRRPDLEALFDDIVPRKVAEVFPDESTRFPRQENREPVKTPVELALERGEEPPKKFSILEASRATRERRRKELEAQGKLPVQPASSAGVAPAAGAAAGSYGTPPPADWSVPGSAGKHRSRAEEQPAEQGFPAQTPAQAPEQSPDSSGGRPNPYATPTASGEHPGMKAYGFGDSELMDQSTGAEHTPGNVSQESPTEMIGFRLPDHERSDYPEKAQKESVLDASETTEMPVVPDQPIDGDSGKSAEGTQENPENEGDNRG | failed
14 | DELEAAAESLEDGSLILEGSTDIRHVSLLLNRDLVDESEEYSTLSGYILFHLGRLPENGQKMHADGYIFEVVTMDGHKIEKVHIVADP | failed
15 | MGSASSCRRIYIGTEANQYLAEQTLIYSIRKHLSDPSIEIIPLTQTQQRVGGTRFGFVRFTLPQAMGYQGKALYLDADQLALTDLAPIFDLLPDDKAIACVYEAEGLYNGKPHVQTWHTSVMLLDCEQLAWQPDELFATVVPNKQEPKPGQIRYRNFMELQWFEQERIAKLPPSWNHFNIVTPETNIVHFSHVRSQPWKNPRHELTDFWLGYLKEAIAAGYLRRRDVVAAVARGHVHPWTLKAIA | failed
16 | EVQKPLHEQLWYHGAIPRAEVAELLVHSGDFLVRESQGKQEYVLSVLWDGLPRHFIIQSLDNLYRLEGEGFPSIPLLIDHLLSTQQPLTKKSGVVLHRAVP | not failed
17 | HHIAYTEWGIFEPELPTVICVHGYTRNSRDFDELANYLSSKGRHVFCPDIAGRGDSSWFKNPRYYNFTQYVKDMTVLMARTNAHQIDWIGTSMGGIIGMILAAMPNSPINKLVLNDIGPQIPIHGLRRIAKYAGKAPDFKSLEEAKQHFKASYADFGITNEKQWDIFTKNSVEQRGPNLYVTKMDPAIKKSKSILQIISEFFRHPHKALEGIFYDINLWSIWKQIKCPVIVIHGVNSDILTSEIITQMKKTHALTEVYEVENAGHAPALLDLTVHQRIEDWLATH | failed
18 | MKEKLWTTTFVVNMLLNFIFYLVFYLPTVVIGTMAMERYHASASIAGILSGIFIVGGFIARLWAGNNMKRLGAKKLLYIGTLIYFLLTFAYFFVHSVVLLLILRLVHGLGFGIAATASGTLAGAIVPSSRRGEGIGYYALSVTLSSAVGPFLSMFLYRTSGFYSLIWLSALLLFIALVGIFFIHVEKTTDSSNSVDNKVHKKFAWSNYFEKEALPISLIAFLIGISYSSILSFMDAYARNIHLSEAASFFFLVYAITVLLSRPITGRVFDGFGDNFVMYPTYLFFALGLLLIGFAHSGWMLLLAAIFIGLGYGSFSPFGQAIAIRNSEAHRLGITTSTFFGFMDMGVGFGPFILGMFMPLLGYRNLYFASAILALLIAVIYHFVHGRHAKREN | failed
19 | MPLCLRNAQQDDTQRLSQIARQTFALACPPDTPATEIEAFIQENLLPEHFSALLEAPGKQLRVLLDDNRVIGYSLVNLHPQDLGVAGADGIAELTRCYLDAAHHGSGAAQFLLAQTLAQQPGPLRLTVNEHNARAIRFYQRNGFVRVGETLFPCGADLHRDWVMLRR | failed
20 | NMRQVLKTDRLVLEPQSMARFDQWFAMERQRDEAGHRDLTEDQAWLRLCARQGMWDAYACGFYYLLDPVSGEMRGEAGFQFRRRGFGPGFDNHPEAAWAVASAHQGRGLAAEAMQALLAHHDRSSGRQRVVALIARSNLPSLRLAERLGFR | failed
21 | MSLDRTTQQPFGNGYLSVEQANLILNHLPLEITFVNKDDIFQYYNDSVPAAEMVFKRTPSQVGRNVELCHPPKVLDKVKKVFELLRNGQRDKVNMWFQSERLGKFVYVTYAAVRDQAGDFQGVLEYVQDIKPFFELDSEFNRDEGHHHHHH | not failed
22 | MRALIRYEDVPSKLWTLPKMTDFWGIGKRTEKRLNKLGISSIKELTNADPLLLKQKLGTIGLQHFFHANGIDESNVRLEHHHHHH | failed
23 | MVEGLGRIGFGLFGLAVLIGITWLFSSNRRAIDWKLVATGLALQISFAALVLLVPGGRDVFDALGKGFVKVLSFVNEGSTFIFGNLMNIDSYGFIFAFQVLPTIIFFSALMGVLYHLGVMQMVVRAMAWAITKVMRVSGAETTSVCASVFIGQTEAPLTVRPYIPKMTQSELLTMMIGGMAHIAGGVLAAYVGMLGGSDPAQQAFYAKHLLAASIMAAPATLVVAKLLVPETGTPLTRGTVKMEVEKTTSNVIDAAAAGAGDGLRLALNIGAMLLAFIALIALINAPLTWLGEVTGATALLGRPTNLSTIFGYVLAPIAWVIGTPWVDATTVGSLIGQKVVINEFVAYSELSRIVKGEVRGVGLSAEGRLIATYALCGFANFSSIAIQIGGIGGLAPERRHDLANFGLRAVLGGSIATFMTATIAGVLSHFG | failed
24 | LAELFEKAAAHLQGLIQVASREQLLYLYARYKQVKVGNCNTPKPSFFDFEGKQKWEAWKALGDSSPSQAMQEYIAVVKKLDPGWNPQIPEKKGKEA | not failed
